Series [1] addresses T1, SR21 serine recombinase (Serine Recombinase 21) (Bacillus safensis strain CCMA-560).
T1 chain: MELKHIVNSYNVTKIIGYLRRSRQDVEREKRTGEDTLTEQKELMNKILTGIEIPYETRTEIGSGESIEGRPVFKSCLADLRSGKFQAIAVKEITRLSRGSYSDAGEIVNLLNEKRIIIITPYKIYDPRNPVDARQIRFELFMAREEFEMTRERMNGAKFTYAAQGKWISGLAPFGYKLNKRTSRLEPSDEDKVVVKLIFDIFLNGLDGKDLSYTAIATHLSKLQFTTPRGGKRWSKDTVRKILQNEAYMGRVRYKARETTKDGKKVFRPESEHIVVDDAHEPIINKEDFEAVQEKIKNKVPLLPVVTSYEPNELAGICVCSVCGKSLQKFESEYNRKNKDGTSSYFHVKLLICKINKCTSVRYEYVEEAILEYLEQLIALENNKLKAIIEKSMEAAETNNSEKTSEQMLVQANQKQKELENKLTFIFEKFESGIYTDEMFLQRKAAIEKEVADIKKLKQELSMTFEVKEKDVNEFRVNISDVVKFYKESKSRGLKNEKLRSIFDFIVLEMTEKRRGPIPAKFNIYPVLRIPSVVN
Nature of the series: cell_activity; attP x attB (SEQ 9) inversion reporter P41 in HEK293, fold increase in fLUC over reporter alone, 37 C 48 h. The note with it: tags: untagged; expressed from CMV promoter plasmid P175 or Ad5-CMV-SR21. The procedure:
(§1) To measure SR21 recombinase activity in human cells, 75,000 HEK293 cells were plated into each well of 96-well tissue culture plates in 100 μl of high-glucose DMEM+10% Fetal Bovine Serum. The recombinase reporter plasmid (P041) ±the SR21 Recombinase expression plasmid (P175)+deoxynucleotides (to normalize DNA amounts) were complexed with Fugene-HD transfection reagent in OptiMEM medium for 15 minutes at room temperature as shown in Table 1 and transfected into triplicate wells of the plated cells. Plates were incubated at 37° C. for 48 hours.
(§2) Firefly Luciferase (fLUC) and Renilla luciferase (rLUC) was assayed sequentially in transfected wells using the Dual Glo assay kit from Promega. Medium was removed from the transfected wells of the tissue culture plate and 100 μl of a 1:1 mixture of DMEM medium (without phenol red) and the Dual Glo luciferase+ fLUC substrate was added. The plate was incubated at room temperature for 10 minutes. The lysate was transferred to an opaque white 96-well plate. fLUC activity was measured using the Envision multilabel reader. Next, 50 μl per well of the Stop-and-Glo buffer+Renilla substrate was added and the plate was incubated with gentle shaking for 10 minutes. The Renilla luciferase signal was read on the same Envision reader.

In series [2] the target is T1, SR21 serine recombinase (Serine …). Nature of the series: cell_activity; attB partner of attP (SEQ 7) in inversion reporter P41, HEK293, fold increase in fLUC over reporter alone. The following applies: tags: untagged; expressed from CMV promoter plasmid P175 or Ad5-CMV-SR21. The procedure: as §1, §2

B1: SR21 attP (dsDNA)
DNA 1: AATTAAGTATCATGATAAACTGACAAAGCGGTATATCAAGATACTTAATA
DNA 2: TATTAAGTATCTTGATATACCGCTTTGTCAGTTTATCATGATACTTAATT
With B1, the activity in series [1] was 1540 fold.

B2: SR21 attB (Fairview) (dsDNA)
DNA 1: CGTCAACATCTCCACTGACAAAGCGGTTTCTCCAACGAAT
DNA 2: ATTCGTTGGAGAAACCGCTTTGTCAGTGGAGATGTTGACG
Take B2: the activity in series [2] was 1540 fold.

These data come from US20240327869, “SYNTHETIC GENETIC ELEMENTS FOR BIOMANUFACTURE” (JANSSEN BIOTECH, INC., published 2024).
